Target: the molecule itself
Assay: crystal structure; BsPatB, sitting drop, 0.2 M ammonium acetate pH 7.1, 20% PEG 3,350

B1: Bacillus subtilis 168 PatB (PLP-bound C-S lyase) (enzyme)
chain: MGGGFAMNFDKREERLGTQSVKWDKTGELFGVTDALPMWVADMDFRAPEAITEALKERLDHGIFGYTTPDQKTKDAVCGWMQNRHGWKVNPESITFSPGVVTALSMAVQAFTEPGDQVVVQPPVYTPFYHMVEKNGRHILHNPLLEKDGAYAIDFEDLETKLSDPSVTLFILCNPHNPSGRSWSREDLLKLGELCLEHGVTVVSDEIHSDLMLYGHKHTPFASLSDDFADISVTCAAPSKTFNIAGLQASAIIIPDRLKRAKFSASLQRNGLGGLNAFAVTAIEAAYSKGGPWLDELITYIEKNMNEAEAFLSTELPKVKMMKPDASYLIWLDFSAYGLSDAELQQRMLKKGKVILEPGTKYGPGGEGFMRLNAGCSLATLQDGLRRIKAALSENLYFQG
modifications: PLP covalently bound to Lys234 (internal aldimine)
notes: N-terminal overhang from cloning into pBADcLIC; PatB (C-S lyase, cystathionine beta-lyase activity) of Bacillus subtilis 168, full-length gene; C-terminal linker of the vector before the His10 tag; also called BsPatB; source: E. coli MC1061, pBADcLIC, purified (HisTrap)
  stoichiometry N: 2

Reference: PMC7385124, “The molecular basis of thioalcohol production in human body odour” (Scientific Reports, 2020)
